Consider one substance from article PMC9513430.

The assay addresses Type I collagen. The experiment in a line: adhesion of whole bacteria to a coated plate (crystal violet staining); type I collagen (0.002-2 mg in 0.25 M acetic acid) coated on 96-well plates overnight at 4°C, blocked with BSA; overnight cultures of S. mutans (1 x 10^8-1 x 10^10 CFU) 3 h at 37°C; fixed, stained with crystal violet, OD595; percent of parental strain SN74.

As for “Cnm of Streptococcus mutans strain TW871, expressed in complemented strain SN74CNDcomp (natural protein)”, the percent of the collagen binding of parental strain SN74 was 60%.
